Reference: US20180282402A1 (ATYR PHARMA, published 2018)

T1: Human HARS (human, UniProt P12081 1-509, limits assumed)
T1 construct: also called human HRS; human histidyl-tRNA synthetase
T1 sequence: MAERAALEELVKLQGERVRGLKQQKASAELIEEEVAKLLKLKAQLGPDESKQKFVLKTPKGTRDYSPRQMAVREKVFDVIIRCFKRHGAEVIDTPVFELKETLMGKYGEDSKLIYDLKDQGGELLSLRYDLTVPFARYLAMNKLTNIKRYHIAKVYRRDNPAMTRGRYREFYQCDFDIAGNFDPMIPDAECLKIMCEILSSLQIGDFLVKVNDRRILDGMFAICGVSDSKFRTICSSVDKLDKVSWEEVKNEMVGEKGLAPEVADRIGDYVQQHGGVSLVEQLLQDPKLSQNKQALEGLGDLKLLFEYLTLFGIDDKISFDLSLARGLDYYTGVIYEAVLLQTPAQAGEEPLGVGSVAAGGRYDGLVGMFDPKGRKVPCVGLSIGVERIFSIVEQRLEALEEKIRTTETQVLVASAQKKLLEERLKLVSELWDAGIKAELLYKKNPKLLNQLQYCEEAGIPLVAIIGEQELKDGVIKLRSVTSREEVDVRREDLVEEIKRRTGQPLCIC


Molecular target: T1, Human HARS
Experiment: SPR (ProteOn); HRS protein immobilized, antibody as analyte

Row | Binder | Kd [nM]
1 | AB04-160 (antibody, V domains shown, Human; IgG1m(zf) kappa) VH: QVQLVESGGGLVKPGGSLRLSCAASGFTFSDYYMTWIRQAPGKGLEWVSYISGSFRYTNYADSVKGRFTISRDNAKNSLYLQMNSLRDEDTAVYFCARYVYQVVAIGDLWGQGTLVTVSS VL: DIQMTQSPSSVSASVGDRVTITCRASQGISSWLAWYQQKPGRAPKLLIFAASSLQSGVPSRFSGSGSGTHFTLTISSLQPEDFATYYCQQAKSFPYTFGQGTKLEIK | 0.06
2 | AB13-259 (IgG4-2 kappa) (antibody, V domains shown, Human) VH: QVQLVESGGGLVKPGGSLRLSCAASGFTFSDYYMSWIRQAPGKGLEWVSYISDKSRYTKYTDSVRGRFTISRDNAKNSLYLQMNSLRAEDTAVYYCARYLYQVIAIADAWGQGTLVTVSS VL: DIQMTQSPSSVSASVGDRVTITCRASQGISSWLAWFQQKPGKAPKLLIFVASNLESGVPSRFSGSGSGTDFTLTISSLQPEDFATYYCQQAESFPYTFGQGTKLEIK | 0.029
3 | AB13-259 (IgG1m(zf) kappa) (antibody, V domains shown, Human) VH: QVQLVESGGGLVKPGGSLRLSCAASGFTFSDYYMSWIRQAPGKGLEWVSYISDKSRYTKYTDSVRGRFTISRDNAKNSLYLQMNSLRAEDTAVYYCARYLYQVIAIADAWGQGTLVTVSS VL: DIQMTQSPSSVSASVGDRVTITCRASQGISSWLAWFQQKPGKAPKLLIFVASNLESGVPSRFSGSGSGTDFTLTISSLQPEDFATYYCQQAESFPYTFGQGTKLEIK | 0.015
4 | AB13-227 (antibody, V domains shown, Human; IgG1m(zf) kappa) VH: QVQLVESGGGLVKPGGSLRLSCAASGFTFSDYYMSWIRQAPGKGLEWVSYISDSSRYTKYTDSVRGRFTISRDNAKNSLYLQMNSLRAEDTAVYYCARYLYQVIAIAKSWGQGTLVTVSS VL: DIQMTQSPSSVSASVGDRVTITCRASQGISSWLAWFQQKPGKAPKLLIFVASNLESGVPSRFSGSGSGTDFTLTISSLQPEDFATYYCQQAESFPYTFGQGTKLEIK | < 0.05
5 | AB04-365 (antibody, V domains shown, Human; IgG1m(zf) kappa) VH: QVQLVESGGGLVKPGGSLRLSCAASGFTFSDYYMTWIRQAPGKGLEWVSYISGSFAYTNYADSVKGRFTISRDNAKNSLYLQMNSLRDEDTAVYFCARYVYQVVAIGDYWGQGTLVTVSS VL: DIQMTQSPSSVSASVGDRVTITCRASQGISSWLAWYQQKPGRAPKLLIFAASSLQSGVPSRFSGSGSGTHFTLTISSLQPEDFATYYCQQAKSFPYTFGQGTKLEIK | 0.185
6 | AB13-147 (antibody, V domains shown, Human; IgG1m(zf) kappa) VH: QVQLVESGGGLVKPGGSLRLSCAASGFTFSDYYMSWIRQAPGKGLEWVSYISDSSRYTKYTDSVRGRFTISRDNAKNSLYLQMNSLRAEDTAVYYCARYLYQVIAIAKSWGQGTLVTVSS VL: DIQMTQSPSSVSASVGDRVTITCRASQGISSWLAWFQQKPGKAPKLLIFVASNLESGVPSRFSGSGSGTDFTLTISSLQPEDFATYYCQQANSFPYTFGQGTKLEIK | 0.024
7 | AB13-166 (antibody, V domains shown, Human; IgG1m(zf) kappa) VH: QVQLVESGGGLVKPGGSLRLSCAASGFTFSDYYMSWIRQAPGKGLEWVSYISDKSRYTKYTPSVRGRFTISRDNAKNSLYLQMNSLRAEDTAVYYCARYLYQVIAIADAWGQGTLVTVSS VL: DIQMTQSPSSVSASVGDRVTITCRASQGISSWLAWFQQKPGKAPKLLIFVASNLESGVPSRFSGSGSGTDFTLTISSLQPEDFATYYCQQAESFPYTFGQGTKLEIK | < 0.001
8 | AB04-276 (antibody, V domains shown, Human; IgG1m(zf) kappa) VH: QVQLVESGGGLVKPGGSLRLSCAASGFTFSDYYMTWIRQAPGKGLEWVSYISGSFAYTDYADSVKGRFTISRDNAKNSLYLQMNSLRDEDTAVYFCARYVYQVVAIGDYWGQGTLVTVSS VL: DIQMTQSPSSVSASVGDRVTITCRASQGISSWLAWYQQKPGRAPKLLIFAASSLQSGVPSRFSGSGSGTHFTLTISSLQPEDFATYYCQQAKSFPYTFGQGTKLEIK | 0.46
9 | AB04-174 (antibody, V domains shown, Human; IgG1m(zf) kappa) VH: QVQLVESGGGLVKPGGSLRLSCAASGFTFSDYYMTWIRQAPGKGLEWVSYISGSNAYTDYADSVKGRFTISRDNAKNSLYLQMNSLRDEDTAVYFCARYVYQTVAIGDLWGQGTLVTVSS VL: DIQMTQSPSSVSASVGDRVTITCRASQGISSWLAWYQQKPGRAPKLLIFAASSLQSGVPSRFSGSGSGTHFTLTISSLQPEDFATYYCQQAKSFPYTFGQGTKLEIK | 170
10 | AB04-121 (antibody, V domains shown, Human; IgG1m(zf) kappa) VH: QVQLVESGGGLVKPGGSLRLSCAASGFTFSDYYMTWIRQAPGKGLEWVSYISGSNAYTDYADSVKGRFTISRDNAKNSLYLQMNSLRDEDTAVYFCARYVYQVVAIGDYWGQGTLVTVSS VL: DIQMTQSPSSVSASVGDRVTITCRASQGISSWLAWYQQKPGRAPKLLIFAASSLQSGVPSRFSGSGSGTHFTLTISSLQPEDFATYYCQQAKSFPYTFGQGTKLEIK | 0.9
11 | AB04-151 (antibody, V domains shown, Human; IgG1m(zf) kappa) VH: QVQLVESGGGLVKPGGSLRLSCAASGFTFSDYYMTWIRQAPGKGLEWVSYISGSFRYTNYADSVKGRFTISRDNAKNSLYLQMNSLRDEDTAVYFCARYVYQVVAIGDYWGQGTLVTVSS VL: DIQMTQSPSSVSASVGDRVTITCRASQGISSWLAWYQQKPGRAPKLLIFAASSLQSGVPSRFSGSGSGTHFTLTISSLQPEDFATYYCQQAKSFPYTFGQGTKLEIK | 0.025
12 | AB04-482 (antibody, V domains shown, Human; IgG1m(zf) kappa) VH: not shown VL: DIQMTQSPSSVSASVGDRVTITCRASQGISSWLAWYQQKPGRAPKLLIFAASSLQSGVPSRFSGSGSGTHFTLTISSLQPEDFATYYCQQAKSFPYTFGQGTKLEIK | 0.26
13 | AB04-483 (antibody, V domains shown, Human; IgG1m(zf) kappa) VH: QVQLVESGGGLVKPGGSLRLSCAASGFTFSDYYMTWIRQAPGKGLEWVSYISGSNAYTNYADSVKGRFTISRDNAKNSLYLQMNSLRDEDTAVYFCARYVYQVVAIGDYWGQGTLVTVSS VL: DIQMTQSPSSVSASVGDRVTITCRASQGISSWLAWYQQKPGRAPKLLIFAASSLQSGVPSRFSGSGSGTHFTLTISSLQPEDFATYYCQQAKSFPYTFGQGTKLEIK | 0.265
14 | AB04-380 (antibody, V domains shown, Human; IgG1m(zf) kappa) VH: QVQLVESGGGLVKPGGSLRLSCAASGFTFSDYYMTWIRQAPGKGLEWVSYISGSFRYTNYAPSVKGRFTISRDNAKNSLYLQMNSLRDEDTAVYFCARYVYQVVAIGDLWGQGTLVTVSS VL: DIQMTQSPSSVSASVGDRVTITCRASQGISSWLAWYQQKPGRAPKLLIFAASSLQSGVPSRFSGSGSGTHFTLTISSLQPEDFATYYCQQAESFPYTFGQGTKLEIK | 0.026
15 | AB04-411 (antibody, V domains shown, Human; IgG1m(zf) kappa) VH: QVQLVESGGGLVKPGGSLRLSCAASGFTFSDYYMTWIRQAPGKGLEWVSYISGSNAYTDYADSVKGRFTISRDNAKNSLYLQMNSLRDEDTAVYFCARYVYQVVAVGDLWGQGTLVTVSS VL: DIQMTQSPSSVSASVGDRVTITCRASQGISSWLAWYQQKPGRAPKLLIFAASSLQSGVPSRFSGSGSGTHFTLTISSLQPEDFATYYCQQAKSFPYTFGQGTKLEIK | 1.9
16 | KL31-261 (antibody, V domains shown, Humanized; IgG1m(zf) kappa) VH: QVQLVQSGAEVKKPGASVKVSCKASGYTFTDYCIGWIRQAPGQGLEWMGDICPGDVYTNDNEKFKDRATMTADTSTSTAYMELSSLRSEDTAVYYCARGEEQLGLRNAMDYWGQGTLVTVSS VL: DIVMTQSPDSLAVSLGERATINCQSQSVSTSTYNYMHWYQQKPGQPPKLLIKYASNLESGVPDRFSGSGSGTDFTLTISSLQAEDVATYYCQHSWEIPWTFGGGTKVEIK | 0.67
17 | KL31-523 (antibody, V domains shown, Humanized; IgG1m(zf) kappa) VH: QVQLVQSGAEVKKPGASVKVSCKASGYTFTDYCIGWIRQAPGQGLEWMGDICPGDAYTNDNEKFKDRATMTADTSTSTAYMELSSLRSEDTAVYYCARGEEQVGLRNAMDYWGQGTSVTVSS VL: DIVMTQSPDSLAVSLGERATINCQSQSVSTSTYNYMHWYQQKPGQPPKLLIKYASNLESGVPDRFSGSGSGTDFTLTISSLQAEDVATYYCQHSWEIPWTFGGGTKLEIK | 32.5
18 | KL31-131 (antibody, V domains shown, Humanized; IgG1m(zf) kappa) VH: QVQLVQSGAEVKKPGASVKVSCKASGYTFTDYCIGWIRQAPGQGLEWMGDICPGDTYTNDNEKFKDRATMTADTSTSTAYMELSSLRSEDTAVYYCARGEEQLGLRNAMDYWGQGTLVTVSS VL: EIVLTQSPATLSLSPGERATLSCQSQSVSTSTYNYMHWYQQKPGQAPRLLIKYASNLESGIPDRFSGSGSGTDFTLTISRLEPEDFATYYCQHSWEIPWTFGGGTKVEIK | 0.25
19 | KL31-600 (antibody, human IgG1, V domains shown) VH: QVQLQQSGAELVRPGSSVRMSCKAVGYTFTDYCIGWIKQRPGHGLEWIGDICPGDAYTNDNEKFKDKATLTADTSSTTAYMQLSSLTSEDSAIYYCARGEEQVGLRNAMDYWGQGTSVTVSS VL: DIVLTQSPASLAVSLGQRATISCQSQSVSTSTYNYMHWYQQKPGQPPKLLIKYASNLESGVPARFSGSGSGTDFTLNIHPVEEEDTATYYCQHSWEIPWTFGGGTKLEIK | 12.2
20 | KL31-275 (antibody, IgG1, V domains shown, Mouse; IgG1 kappa) VH: QVQLQQSGAELVRPGSSVRMSCKAVGYTFTDYCIGWIKQRPGHGLEWIGDICPGDAYTNDNEKFKDKATLTADTSSTTAYMQLSSLTSEDSAIYYCARGEEQVGLRNAMDYWGQGTSVTVSS VL: DIVLTQSPASLAVSLGQRATISCQSQSVSTSTYNYMHWYQQKPGQPPKLLIKYASNLESGVPARFSGSGSGTDFTLNIHPVEEEDTATYYCQHSWEIPWTFGGGTKLEIK | 6.79
21 | KL31-313 (antibody, IgG2a, V domains shown, Mouse; IgG2a kappa) VH: QVQLQQSGAELVRPGSSVRMSCKAVGYTFTDYCIGWIKQRPGHGLEWIGDICPGDAYTNDNEKFKDKATLTADTSSTTAYMQLSSLTSEDSAIYYCARGEEQVGLRNAMDYWGQGTSVTVSS VL: DIVLTQSPASLAVSLGQRATISCQSQSVSTSTYNYMHWYQQKPGQPPKLLIKYASNLESGVPARFSGSGSGTDFTLNIHPVEEEDTATYYCQHSWEIPWTFGGGTKLEIK | 277
